From PMC4619830

Biological target: T1, SoxR (MerR-type HTH transcriptional regulator) (Acinetobacter baumannii AYE) (UniProt C7FFS1)
T1 sequence: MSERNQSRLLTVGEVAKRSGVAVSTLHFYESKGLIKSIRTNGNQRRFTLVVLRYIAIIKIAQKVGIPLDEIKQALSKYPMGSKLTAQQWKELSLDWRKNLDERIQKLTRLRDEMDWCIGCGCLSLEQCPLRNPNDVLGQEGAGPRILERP
Assay: EMSA
Conditions: not stated (gel shift as described previously, 20)

Sequence: GGCTGCTCGGTATGATGTCGTTAATTAACAGAAGTAAATGCCGCTTCGAGATTTTGTGATGATCAACGAGCGGTATAAAAAAGACAAGTAGAATTAAACAATAAATGTAATTAAGACAAAAACAAAGCGTGATTGAATATTTCCAACAAACCAATAAAAAACCAGTTAACGAGTGTCACTTAAAATTCATGAATTCTTCATGATCATGTCAAACAAAGCA (double strand) [abeD promoter fragment]
- binding: binds
